From PMC2258145, “Transcriptional Regulation of PIK3CA Oncogene by NF-κB in Ovarian Cancer Microenvironment”

Target: NF-kB p50 (recombinant, Promega) (UniProt P19838 1-433)
Experiment: EMSA; LightShift EMSA kit binding buffer, 1 ug poly(dI-dC), 30 fmol biotin probe, 20 ul, room temperature 20 min; 7.5% PAGE in 0.25x TBE; salt and pH not stated
Settings: protein: commercial; chain copies: 2; label: 5'-biotin; blunt

Chain of NF-kB p50 (recombinant, Promega) (P19838 1-433): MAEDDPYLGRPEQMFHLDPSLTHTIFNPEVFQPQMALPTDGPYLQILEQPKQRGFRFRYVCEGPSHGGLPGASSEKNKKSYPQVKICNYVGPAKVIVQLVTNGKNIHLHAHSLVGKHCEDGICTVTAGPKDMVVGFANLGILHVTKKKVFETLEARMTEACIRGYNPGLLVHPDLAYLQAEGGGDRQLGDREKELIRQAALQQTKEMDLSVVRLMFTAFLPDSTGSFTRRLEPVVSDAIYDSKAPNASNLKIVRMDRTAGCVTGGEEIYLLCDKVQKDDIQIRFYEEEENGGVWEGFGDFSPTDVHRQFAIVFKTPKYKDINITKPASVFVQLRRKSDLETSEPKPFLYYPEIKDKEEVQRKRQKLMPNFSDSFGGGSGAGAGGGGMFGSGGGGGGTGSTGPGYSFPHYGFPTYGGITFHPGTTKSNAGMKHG

B1: wt huPIK3CA NF-kB probe (dsDNA)
DNA 1: GACGTGGGGGATTTTTCGCGTA
DNA 2: TACGCGAAAAATCCCCCACGTC
binding result: binds
